Results on 1 substance are retold here after patent EP2620453B1.

A value given as a limit tells only on which side of the number the result lay.

Test [1] deals with Stx1 (type-I Shiga toxin, recombinant holotoxin) (EHEC O157:H7) (UniProt P08026). The test is described as follows: ELISA, plates coated with Stx1, serum titer. In general terms: An ELISA detects its analyte on a solid surface through an enzyme-linked reagent.
The target of test [2] is Stx2 (type-II Shiga toxin, recombinant holotoxin) (EHEC O157:H7) (UniProt P09386). The test is described as follows: ELISA, plates coated with Stx2, serum titer.

Turning to “serum of the placebo control PBS group (BALB/c mice) (antibody)”, the titer of serum IgA and IgG in test [1] and in test [2] was below 2 each time.
